Experimental findings from patent US20220387586A1 (Hoffmann-La Roche, published 2022) are described below.

Assay [1] has as its target T1, recombinant Human LAG-3 Fc Chimera Protein (R&D Systems, 2319-L3) (human, UniProt P18627 29-450).
T1 construct: Bought protein; also called huLAG3; not shown: Fc part of the chimera
T1 sequence: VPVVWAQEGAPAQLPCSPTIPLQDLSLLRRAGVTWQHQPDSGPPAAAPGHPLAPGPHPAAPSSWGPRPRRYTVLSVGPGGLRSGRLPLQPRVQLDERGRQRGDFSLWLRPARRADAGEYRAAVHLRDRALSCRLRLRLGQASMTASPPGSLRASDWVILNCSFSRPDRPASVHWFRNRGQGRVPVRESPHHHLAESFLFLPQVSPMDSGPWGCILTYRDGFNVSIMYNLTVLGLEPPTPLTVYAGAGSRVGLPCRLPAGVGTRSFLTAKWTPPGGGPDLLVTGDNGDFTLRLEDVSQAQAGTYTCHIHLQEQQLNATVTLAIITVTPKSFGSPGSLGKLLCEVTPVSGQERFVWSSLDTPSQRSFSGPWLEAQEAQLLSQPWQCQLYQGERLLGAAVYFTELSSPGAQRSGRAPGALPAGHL
Nature of the assay: ELISA on coated Human LAG-3 Fc Chimera (rel. EC50). As for the experimental part: After washing (3×90 μl/well with PBST-buffer) each well was incubated with 90 μl blocking buffer (PBS+2% BSA+0.05% Tween 20) for 1 h at room temperature. […] After washing (3×90 μl/well with PBST-buffer) 25 μl/well goat anti-Human Ig κ chain antibody-HRP conjugate (Milipore, AP502P) was added in a 1:2000 dilution and incubated at RT for 1 h. After washing (3×90 μl/well with PBST-buffer) 25 μl/well TMB substrate (Roche, 11835033001) was added and incubated for 2-10 min. Measurement took place on a Tecan Safire 2 instrument at 370/492 nm.

Assay [2] concerns the target T2, biotinylated-Lag3 (UniProt P18627 23-450, limits assumed, biotinylated).
T2 construct: Probably a human LAG3 ECD construct; also called Lag3 (MHCII/ELISA)
T2 sequence (looked up): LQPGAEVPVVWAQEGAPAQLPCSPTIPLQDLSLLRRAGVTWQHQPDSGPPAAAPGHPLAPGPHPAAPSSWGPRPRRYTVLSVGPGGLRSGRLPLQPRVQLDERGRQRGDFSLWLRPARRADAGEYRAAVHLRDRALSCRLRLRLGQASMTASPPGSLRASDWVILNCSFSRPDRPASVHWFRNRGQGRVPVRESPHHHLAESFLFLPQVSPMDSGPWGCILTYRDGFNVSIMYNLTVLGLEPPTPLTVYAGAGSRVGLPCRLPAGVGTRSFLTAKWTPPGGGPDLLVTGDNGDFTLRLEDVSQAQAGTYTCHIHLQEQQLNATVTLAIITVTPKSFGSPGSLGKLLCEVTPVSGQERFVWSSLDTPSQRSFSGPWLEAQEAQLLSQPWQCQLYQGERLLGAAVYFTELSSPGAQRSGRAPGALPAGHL
Description: ELISA, inhibition of biotinylated-Lag3 binding to MHC-II on A375 cells (competitor MHC-II). As for the experimental part:
25 μl/well of A375 cells (10000 cells/well) were seeded into tissue culture treated 384-well plates (Corning, 3701) and incubated at 37° C. overnight. […] After washing (1×90 μl in PBST) cells were fixed by addition of 30 μl/well glutaraldehyde to a final concentration of 0.05% (Sigma Cat.No: G5882), 10 min at room temperature. After washing (3×90 μl/well with PBST-buffer) 25 μl/well Poly-HRP40-Streptavidin (Fitzgerald, 65R-S104PHRPx) was added in a 1:2000 or 1:8000 dilution and incubated at RT for 1 h. After washing (3×90 μl/well with PBST-buffer) 25 μl/well TMB substrate (Roche, 11835033001) was added and incubated for 2 to 10 min. Measurement took place on a Tecan Safire 2 instrument at 370/492 nm.

In assay [3] the target is T3, biotinylated PD1-ECD-AviHis (human, UniProt Q15116 25-170, biotinylated).
T3 construct: also called huPD1; hu PD1; not shown: Avi-His tag
Nature of the assay: ELISA on coated biotinylated PD1-ECD-AviHis (rel. EC50). As for the experimental part:
After washing (3×90 μl/well with PBST-buffer) 25 μl/well goat-anti-human H+L-POD (JIR, JIR109-036-098) was added in 1:5000 dilution and incubated at RT for 1 h on a shaker. After washing (3×90 μl/well with PBST-buffer) 25 μl/well of TMB substrate (Roche, 11835033001) was added and incubated until OD 2-3. Measurement took place at 370/492 nm.

Assay [4] concerns the target T4, LAG3 on cells (recombinant CHO cells expressing Lag3) (human, UniProt P18627 29-525).
T4 construct: The cell ELISA paragraphs say only 'Lag3'; also called CHO-LAG3; Lag3 cells
T4 sequence: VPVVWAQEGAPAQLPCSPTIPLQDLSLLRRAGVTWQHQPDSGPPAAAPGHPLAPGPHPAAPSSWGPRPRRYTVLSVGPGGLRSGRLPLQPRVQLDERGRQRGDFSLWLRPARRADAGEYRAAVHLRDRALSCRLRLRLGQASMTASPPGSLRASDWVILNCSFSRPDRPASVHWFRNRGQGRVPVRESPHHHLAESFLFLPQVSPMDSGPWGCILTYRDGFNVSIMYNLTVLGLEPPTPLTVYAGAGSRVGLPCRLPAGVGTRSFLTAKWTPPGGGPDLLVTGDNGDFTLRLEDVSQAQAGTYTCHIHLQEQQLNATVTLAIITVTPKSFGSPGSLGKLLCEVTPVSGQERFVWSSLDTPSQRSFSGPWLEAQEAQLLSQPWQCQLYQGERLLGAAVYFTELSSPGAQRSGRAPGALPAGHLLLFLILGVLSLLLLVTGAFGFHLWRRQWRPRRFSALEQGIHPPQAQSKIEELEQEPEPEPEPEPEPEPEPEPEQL
Nature of the assay: cell ELISA on recombinant CHO cells expressing Lag3 (rel. EC50). As for the experimental part:
After washing (1×90 μl in PBST) cells were fixed by addition of 30 μl/well glutaraldehyde to a final concentration of 0.05% (Sigma Cat.No: G5882), 10 min at room temperature. After washing (3×90 μl/well with PBST-buffer) 25 μl/well goat anti-Human Ig κ chain antibody-HRP conjugate (Milipore, AP502P) was added in a 1:1000 dilution and incubated at RT for 1 h. After washing (3×90 μl/well with PBST-buffer) 25 μl/well TMB substrate (Roche, 11835033001) was added and incubated for 6-10 min. Measurement took place on a Tecan Safire 2 instrument at 370/492 nm.

Assay [5] deals with T5, full-length human PD1 on cells (human, UniProt Q15116 25-288).
T5 construct: also called CHO-PD1
Description: cell ELISA on CHO-K1 cells expressing full-length human PD1 (rel. EC50). As for the experimental part:
(to avoid internalization). After washing carefully (1×90 μl/well PBST) cells were fixed by adding 30 μl/well 0.05% Glutaraldehyde (Sigma, Cat.No: G5882, 25%) diluted in 1×PBS-buffer and incubated for 10 min at RT. After washing (3×90 μl/well PBST) 25 μl/well secondary antibody was added for detection: goat-anti-human H+L-POD (JIR, JIR109-036-088)/Sheep-anti-mouse-POD (GE NA9310) followed by 1 h incubation at RT on shaker. After washing (3×90 μl/well PBST) 25 μl/well TMB substrate solution (Roche 11835033001) was added and incubated until OD 1.0-2.0. Plates were measured at 370/492 nm.

The target of assay [6] is T3, biotinylated PD1-ECD-AviHis. Description: PD-L2 replacing ELISA on coated PD1-ECD-AviHis; competitor PD-L2 Fc chimera. As for the experimental part: After washing (3×90 μl/well with PBST-buffer) 25 μl/well goat-anti-human H+L-POD (JIR, 109-036-088) was added in 1:2000 dilution and incubated at RT for 1 h on shaker. After washing (3×90 μl/well with PBST-buffer) 25 μl/well TMB (tetramethylbenzidine) substrate (Roche, #11835033001) was added and incubated until OD 2-3. Measurement took place at 370/492 nm.

Assay [7] concerns the target T6, biotinylated cynoPD1-ECD-Biotin (cynomolgus, UniProt B0LAJ3 25-170, biotinylated; the site and any Avi or His tag are not stated in the passages shown).
T6 construct: also called cyPD1
Description: ELISA on coated cynoPD1-ECD-Biotin. As for the experimental part: After washing (3×90 μl/well with PBST-buffer) 25 μl/well goat-anti-human H+L-POD (JIR, JIR109-036-088) was added in 1:1000 dilution and incubated at RT for 1 h on shaker. After washing (3×90 μl/well with PBST-buffer) 25 μl/well TMB substrate (Roche, 11835033001) was added and incubated until OD 2-3. Measurement took place at 370/492 nm.

Assay [8] concerns the target T3, biotinylated PD1-ECD-AviHis. Nature of the assay: ELISA on coated biotinylated PD1-ECD-AviHis. As for the experimental part:
After washing (3×90 μl/well with PBST-buffer) 25 μl/well goat-anti-human H+L-POD (JIR, JIR109-036-088)/Sheep-anti-mouse-POD (GE Healthcare; NA9310) was added in 1:2000/1:1000 dilution and incubated at RT for 1 h on shaker. After washing (3×90 μl/well with PBST-buffer) 25 μl/well TMB substrate (Roche Catalogue No. 11835033001) was added and incubated until OD 2-3. Measurement took place at 370/492 nm.

T3 sequence (Q15116 25-170): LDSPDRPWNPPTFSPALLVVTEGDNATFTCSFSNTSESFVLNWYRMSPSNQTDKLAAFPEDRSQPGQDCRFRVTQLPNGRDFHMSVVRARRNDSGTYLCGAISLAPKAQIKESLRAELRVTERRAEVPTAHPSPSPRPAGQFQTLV
T5 sequence (Q15116 25-288 limits assumed): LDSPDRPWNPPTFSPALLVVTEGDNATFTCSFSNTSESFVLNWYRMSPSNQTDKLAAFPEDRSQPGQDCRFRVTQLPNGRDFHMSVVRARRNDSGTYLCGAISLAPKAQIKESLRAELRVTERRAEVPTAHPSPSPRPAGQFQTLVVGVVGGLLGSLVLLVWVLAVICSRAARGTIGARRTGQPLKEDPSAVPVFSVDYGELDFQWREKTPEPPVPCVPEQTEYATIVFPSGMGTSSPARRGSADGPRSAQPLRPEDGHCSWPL
T6 sequence (B0LAJ3 entry or part of it limits assumed): as the sequence (Q15116 25-170) above, with D2E, P10A, V19L, T35A, Q75R, T144A counted along it

B1: PD1/LAG3 0222 (bispecific antibody, human IgG1, kappa, L234A L235A)
heavy 1: not shown
heavy 2: QVQLQQWGAGLLKPSETLSLTCAVYGGSFSDYYWNWIRQPPGKGLEWIGEINHNGNTNSNPSLKSRVTLSLDTSKNQFSLKLRSVTAADTAVYYCAFGYSDYEYNWFDPWGQGTLVTVSSASTKGPSVFPLAPSSKSTSGGTAALGCLVEDYFPEPVTVSWNSGALTSGVHTFPAVLQSSGLYSLSSVVTVPSSSLGTQTYICNVNHKPSNTKVDEKVEPKSCDKTHTCPPCPAPEAAGGPSVFLFPPKPKDTLMISRTPEVTCVVVDVSHEDPEVKFNWYVDGVEVHNAKTKPREEQYNSTYRVVSVLTVLHQDWLNGKEYKCKVSNKALGAPIEKTISKAKGQPREPQVCTLPPSRDELTKNQVSLSCAVKGFYPSDIAVEWESNGQPENNYKTTPPVLDSDGSFFLVSKLTVDKSRWQQGNVFSCSVMHEALHNHYTQKSLSLSPGK
light 1: QVQLQQSGPELVRPGVSVKISCKGSGYTFTDYAMHWVKQSHARTLEWIGVISTYSGDTNYNQKFKDKATMTVDKSSSTAYLELARMTSEDSAIYYCARLGITTGFAYWGQGTLVTVSAASVAAPSVFIFPPSDEQLKSGTASVVCLLNNFYPREAKVQWKVDNALQSGNSQESVTEQDSKDSTYSLSSTLTLSKADYEKHKVYACEVTHQGLSSPVTKSFNRGEC
light 2: not shown
notes: 1+1 CrossMAb Vh-VL; also called PD1(0069)/aLAG3(25F7) 1+1; PD1-0069/LAG3 25F7 (1 + 1)
For B1, the half-maximal effective concentration (EC50) in assay [1] worked out at 1140 pM; in assay [3], 160 pM; in assay [4] it was 720 pM; in assay [5], 280 pM. In addition, in assay [2], the IC50 was 770 pM.

B2: PD1/LAG3 0224 (bispecific antibody, human IgG1, kappa, L234A L235A)
heavy 1: not shown
heavy 2: B1 heavy 2
light 1: DVQLQESGPGLVKPSQSLSLTCTVTGYSITSDYAWNWIRQFPGDKLEWLGYITYSGFTNYNPSLKSRISISRDTSKNQFFLQLNSVATEDTATYYCARWHGSAPWYFDYWGRGTTLTVSSASVAAPSVFIFPPSDEQLKSGTASVVCLLNNFYPREAKVQWKVDNALQSGNSQESVTEQDSKDSTYSLSSTLTLSKADYEKHKVYACEVTHQGLSSPVTKSFNRGEC
light 2: not shown
notes: 1+1 CrossMAb Vh-VL; also called PD1(0098)/aLAG3(25F7) 1+1; PD1-0098/LAG3 25F7 (1 + 1)
For the molecule B2, the EC50 is 860 pM in assay [1], 40 pM in assay [3], 860 pM in assay [4] and 60 pM in assay [5]. The concentration for half-maximal inhibition (IC50) in assay [2] was determined as 790 pM.

B3: PD1-0078 (antibody, V domains shown)
VH: QVQLQQPGAELVKPGASVKMSCKASGYTFTSTWMHWVKQRPGQGLEWIGAIDPSDSYTTYNQKFKGKATLTVDTSSTTAYMQLSSLTSEDSAVYYCTRSPFDYWGQGTTLTVSS
VL: DIVMTQSHKFMSTSVGDRVSITCKASQDVSTAVAWYQQKPGQSPKLLIYSASYRYTGVPDRFTGSGSGTDFTFAISSVQAEDLAVYYCQQHYSHPFTFGSGTKLEIK
Turning to B3, the half-inhibitory concentration (IC50) in assay [6] is 0.086 µg/mL. In addition, the concentration for a half-maximal effect (EC50) was 0.0224 µg/mL in assay [7] and 0.0263 µg/mL in assay [8].

B4: PD1/LAG3 9010 (bispecific antibody, human IgG1, kappa, L234A L235A)
heavy: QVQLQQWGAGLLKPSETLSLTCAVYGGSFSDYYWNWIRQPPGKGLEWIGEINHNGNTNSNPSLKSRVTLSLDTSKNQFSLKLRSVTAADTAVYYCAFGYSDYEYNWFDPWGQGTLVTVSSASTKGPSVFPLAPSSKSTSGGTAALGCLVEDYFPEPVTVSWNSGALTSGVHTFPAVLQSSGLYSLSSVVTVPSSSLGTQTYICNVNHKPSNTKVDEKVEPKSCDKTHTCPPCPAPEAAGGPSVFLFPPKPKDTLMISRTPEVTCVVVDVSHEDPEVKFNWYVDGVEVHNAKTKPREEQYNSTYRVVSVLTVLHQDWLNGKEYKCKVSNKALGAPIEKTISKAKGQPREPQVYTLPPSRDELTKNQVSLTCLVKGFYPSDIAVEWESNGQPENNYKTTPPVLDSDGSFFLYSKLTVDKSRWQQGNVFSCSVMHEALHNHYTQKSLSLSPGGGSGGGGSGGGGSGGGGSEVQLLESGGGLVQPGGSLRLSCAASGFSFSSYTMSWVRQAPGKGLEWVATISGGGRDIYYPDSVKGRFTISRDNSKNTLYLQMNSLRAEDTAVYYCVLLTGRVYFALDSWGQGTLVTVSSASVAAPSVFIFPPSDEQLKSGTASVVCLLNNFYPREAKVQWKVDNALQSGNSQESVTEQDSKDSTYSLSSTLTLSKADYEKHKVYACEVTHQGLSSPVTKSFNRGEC
light 1: DIVMTQSPDSLAVSLGERATINCKASESVDTSDNSFIHWYQQKPGQSPKLLIYRSSTLESGVPDRFSGSGSGTDFTLTISSLQAEDVAVYYCQQNYDVPWTFGQGTKVEIKSSASTKGPSVFPLAPSSKSTSGGTAALGCLVKDYFPEPVTVSWNSGALTSGVHTFPAVLQSSGLYSLSSVVTVPSSSLGTQTYICNVNHKPSNTKVDKKVEPKSC
light 2: not shown
notes: 2+2 format
With B4, the 50% effective concentration (EC50) came to 50 pM in assay [1], 40 pM in assay [3], 480 pM in assay [4] and 360 pM in assay [5]. In assay [2], this molecule had an IC50 of 520 pM.
